According to patent US20050176124:

Target: T1, EGF receptor autophosphorylation site peptide DADEpYL-NH2
T1 chain: DADEYL

B1: DSP-3-glutathione-S-transferase (GST) fusion protein (protein)
chain: MGNGMNKILPGLYIGNFKDARDAEQLSKNKVTHILSVHDSARPMLEGVKYLCIPAADSPSQNLTRHFKESIKFIHECRLRGESCLVHCLAGVSRSVTLVIAYIMTVTDFGWEDALHTVRAGRSCANPNVGFQRQLQEFEKHEVHQYRQWLKEEYGESPLQDAEEAKNILAAPGILKFWAFLRRL
  Km (phosphatase assay, release of 32P from substrate peptide): Km=1.2 µM
  specific activity (phosphatase assay, release of 32P from substrate peptide): 88.4 nmol/min/mg
